Results from patent US10293026B2, “Agent for preventing or treating demyelinating disease” (Osaka University, priority 2014, dated 2019).

Experiments:
[1] = system: oligodendrocyte precursor cells; test: BrdU uptake by oligodendrocyte precursor cells with recombinant FGFs (Example 3); type: cell-based, C57BL/6j mice; conditions: FGF at 10, 30 or 100 ng/ml, vs saline control; FIG. 3
Description: Recombinant FGF15 (Abcam), FGF21 (R&D), or FGF23 (R&D) was diluted in saline solution immediately before use to prepare an each FGF-containing solution. Oligodendrocyte precursor cells were harvested from C57BL/6j mice (postnatal day 1-old) brains, as in Example 1.
Initially, the oligodendrocyte precursor cells were seeded in a poly-L-lysinde (Sigma)-coated plastic tissue culture dish, and cultured in the following medium for 1 day (37° C., 5% CO2). The medium used was DMEM containing 4 mM L-gludamine (Sigma), 1 mM sodium pyruvate (Sigma), 0.1% bovine serum albumin (Sigma), 50 μg/ml apo-Transferrin (Sigma), 5 μg/ml insulin (Sigma), 30 nM sodium selenite (Sigma), 10 nM biotin (Sigma), 10 nM hydrocortisone (Sigma), 10 ng/ml Platelet-Derived Growth Factor-AA (Peprotech), and 10 ng/ml basic fibroblast growth factor (Peprotech). Thereafter, each type of FGF-containing solution was added to the culture medium of oligodendrocyte precursor cells such that the concentration of each type of FGF was 10 ng/ml, 30 ng/ml, or 100 ng/ml, and the cells were cultured at 37° C. for 24 hours. BrdU was subsequently added and cultured at 37° C. for 24 hours, and then the cells were collected; the BrdU uptake was then detected using the cell proliferation ELISA, BrdU colorimetric kit (Roche). As a control, an equivalent amount of saline solution was used instead of the FGF21-containing solution, and the BrdU uptake was measured under the same conditions as those described above. This experiment studied three cases for each group.

[2] = system: oligodendrocyte precursor cells in demyelination model mice; test: PDGFRα and Ki67 double-positive cells in spinal cord of demyelination model mice, subcutaneous administration (Example 5); type: in vivo, C57BL/6j mice; conditions: subcutaneous 500 ng/kg body weight per day for 2 weeks, vs saline with 0.5% BSA, FIG. 5
Description: Demyelination model mice were produced by performing a laminectomy at the 11th and 12th thoracic vertebrae in C57BL/6j mice (female, 7-week-old), and topically administering 2 μl of lysophosphatidylcholine diluted to 1% (w/v) in saline solution at a depth of 2 mm into the midline of the spinal column.
An FGF21-containing solution prepared by diluting recombinant FGF21 (R&D) in saline solution was subcutaneously administered for 2 weeks at a dose of 500 ng/kg body weight of FGF21 per day. After 2 weeks, the demyelination model mice were anesthetized and transcardially perfused with saline solution, and spinal cord tissue was harvested. The harvested spinal cord tissue was fixed with a 4% paraformaldehyde solution, which was then replaced with a 30% sucrose solution, and subsequently, frozen thin sections were prepared. The sections were immunostained using an anti-PDGFRα antibody and an anti-Ki67 antibody, and the number of PDGFRα and Ki67 double-positive cells in the sections was counted. As a control, a saline solution containing 0.5% BSA was used, and the number of PDGFRα and Ki67 double-positive cells was counted under the same conditions as those described above. This experiment conducted the study using five or six mice for each group.

[3] = system: myelin sheath in demyelination model mice; test: MBP positive regions in spinal cord of demyelination model mice (Example 6); type: in vivo, C57BL/6j mice; conditions: subcutaneous 500 ng/kg per day for 2 weeks from 7 days after lysophosphatidylcholine, one mouse per group, FIG. 6
Description: Demyelination model mice were created as in Example 5 above. An FGF21-containing solution prepared by diluting recombinant FGF21 (R&D) in saline solution was subcutaneously administered for 2 weeks at a dose of 500 ng/kg body weight of FGF21 per day, to the demyelination model mice after 7 days from the administration of lysophosphatidylcholine. After 2 weeks, the demyelination model mice were anesthetized and transcardially perfused with saline solution, and spinal cord tissue was harvested. Sections were prepared from the harvested spinal cord tissue as in Example 5 above and then immunostained using an anti-MBP antibody, and MBP positive regions in the sections were counted. As a control, a saline solution containing 0.5% BSA was used, and MBP positive regions were counted under the same conditions as those described above. This experiment conducted the study using one mouse for each group.

demyelination model mice = test: Ladder walk test of hindlimb motor function in demyelination model mice (Example 7); type: in vivo, C57BL/6j mice; conditions: FGF21 administered as in Example 5, FIG. 7
Description: Demyelination model mice were created, and recombinant FGF21 was administered, as in Example 5 above. The hindlimb motor function of the mice was examined by performing the ladder walk test. A 1-m long ladder was installed in a position at a height of 15 cm. The mice were allowed to walk on the ladder with random widths of 0.6, 1.2, and 1.8 cm. The number of missed steps was counted, and the proportion (%) of the number of missed steps relative to the total number of steps was calculated. This experiment conducted the study using three mice for each group.

[4] = system: oligodendrocyte precursor cells in brain contusion model mice; test: PDGFRα and Ki67 double-positive cells in brain tissue of brain contusion model mice (Example 9); type: in vivo, C57BL/6j mice; conditions: continuous intraventricular administration 50 ng/kg body weight per day for 1 week, vs vehicle, FIG. 9
Description: Anesthetized C57BL/6j mice (female, 7-week-old) were fixed onto a brain stereotaxic apparatus (Narishige). A midline incision was made in the scalp, the fascia was removed, and the skull was exposed. A craniotomy was performed through a 4-mm diameter circle centered at 2 mm lateral to the bregma. A 3-mm diameter chip was connected to the Pneumatic Impact Device (AmScien Instruments) to create a brain contusion. The parameters for imparting impact were as follows: speed: […], depth: 1 mm, and duration: 120 msec.
Osmotic pumps (ALZET) were filled with an FGF21-containing solution prepared by diluting recombinant FGF21 (R&D) in saline solution. A cannula was attached to the tip of each osmotic pump, and the cannula tip was further connected to a Brain infusion kit (ALZET) to continuously administer the FGF21-containing solution into the ventricles. The FGF21-containing solution was administered for 1 week at a dose of 50 ng/kg body weight of FGF21 per day. […] The sections were immunostained using an anti-PDGFRα antibody and an anti-Ki67 antibody, and the number of PDGFRα and Ki67 double-positive cells in the sections was counted. As a control, a saline solution containing 0.5% BSA (Vehicle) was used, and the number of PDGFRα and Ki67 double-positive cells was counted under the same conditions as those described above. […]

B1: FGF21: Recombinant fibroblast growth factor 21 (R&D); the claimed active ingredient promoting oligodendrocyte precursor cell proliferation (protein, listed as Homo sapiens)
chain: MDSDETGFEHSGLWVSVLAGLLLGACQAHPIPDSSPLLQFGGQVRQRYLYTDDAQQTEAHLEIREDGTVGGAADQSPESLLQLKALKPGVIQILGVKTSRFLCQRPDGALYGSLHFDPEACSFRELLLEDGYNVYQSEAHGLPLHLPGNKSPHRDPAPRGPARFLPLPGLPPALPEPPGILAPQPPDVGSSDPLSMVGPSQGRSPSYAS
B1 was tested, and the “BrdU uptake by the oligodendrocyte precursor cells” value [1] was “markedly increased”, the “number of PDGFRα and Ki67 double-positive cells” value [2] was “increased” and the MBP positive regions [3] was “increased”. The “number of missed steps on the ladder” value (demyelination model mice) was “decreased” and the “number of PDGFRα and Ki67 double-positive cells” value [4] was “increased”.
